± gives the standard deviation of the averaged measurements.
Each sequence was assayed on Saccharomyces cerevisiae (assay: protein stability index of tFT-peptide fusion (C-terminal peptide) (PSI (0-1 scale)); higher = more stable (slower turnover)). Settings: genetic background: wild type; temperature: 30 C.
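Further: PSI is a weighted mean of sequencing reads over stability bins, variants kept only with over 10 reads, mCherry proximal and sfGFP distal, peptide attached via GGGS linker.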

Row | Sequence | protein stability index
1 | GGTGRRRVGRRG | 0.696 ± 0.018
2 | GRARWVGGEGVW | 0.706 ± 0.025
3 | PSPSTSLPPSPP | 0.684 ± 0.042
4 | VPRPPGPPPGPV | 0.667 ± 0.053
5 | GAVWGRLTGSAH | 0.6469 ± 0.005
6 | GGEKEREEEDKE | 0.625 ± 0.056
7 | LLLRSSPVSLSR | 0.7162 ± 0.0034
8 | GGGGSRGRVGDI | 0.7182 ± 0.0022
9 | VLGWGSKCLVGS | 0.7 ± 0.035
10 | WAVLLQGSRDLW | 0.788 ± 0.016
11 | PPPHGPPPPPLP | 0.648 ± 0.055
12 | RSLVAATLSSLG | 0.735 ± 0.045
13 | HPISLSYPSPFV | 0.665 ± 0.13
14 | SPPLPAPPPPIP | 0.60339 ± 3.2e-05
15 | PPLPDSPPPVPP | 0.633 ± 0.017
16 | GPVTSFAPVAVS | 0.617 ± 0.038
17 | CSAALTTLLDFA | 0.715 ± 0.018
18 | RGGPQARRLRPY | 0.706 ± 0.063
19 | PANGKQNRGKRR | 0.645 ± 0.078
20 | WFQRGKIPIHKV | 0.667 ± 0.074
21 | ALRSGHALPFGF | 0.667 ± 0.021
22 | GLCVLVASCGRG | 0.664 ± 0.15
23 | PSPPPLLAPSPL | 0.683 ± 0.096
24 | RAGSLRFRVILY | 0.635 ± 0.026

Row | Sequence | protein stability index
25 | TYVPRYPPPLFP | 0.72 ± 0.061
26 | GRFRQTVTGEGW | 0.669 ± 0.087
27 | KRNEQQKNDRKK | 0.653 ± 0.046
28 | PRPPLRPPPISP | 0.68 ± 0.066
29 | TRGGTVKDRQQR | 0.702 ± 0.037
30 | GREGAADGWACG | 0.652 ± 0.055
31 | LQHSLNRKEIET | 0.688 ± 0.014
32 | SRRRRGRGEWFG | 0.722 ± 0.019
33 | LRHHARSYLPRL | 0.805 ± 0.18
34 | RLDVGAGGCLGG | 0.716 ± 0.021
35 | CRKLSIPLRGQS | 0.6627 ± 0.0044
36 | PLPPAPPSLSPP | 0.651 ± 0.01
37 | SPPAPPVSPPPP | 0.744 ± 0.042
38 | PLVPISPLPYLP | 0.737 ± 0.012
39 | FGLSVSSMSWNL | 0.714 ± 0.0078
40 | KNDKHQTRKSTT | 0.703 ± 0.11
41 | VGADVLAYRGVA | 0.604 ± 0.025
42 | SLLAGSSLPFSP | 0.696 ± 0.0074
43 | FVLRFRGMRPSN | 0.673 ± 0.019
44 | LSPPPSPLPPLP | 0.679 ± 0.019
45 | NDQWKKENRGKK | 0.737 ± 0.013
46 | APSPPRAPLPPA | 0.689 ± 0.047
47 | PPPPPHLPPLTP | 0.711 ± 0.054
48 | VASTSLPDIRGV | 0.631 ± 0.07

Row | Sequence | protein stability index
49 | LLVPCLQPPFRV | 0.622 ± 0.023
50 | HGAEAWPDVGPG | 0.639 ± 0.021
51 | RLLLSRCSFLPT | 0.663 ± 0.03
52 | WGVSGAGPHLLL | 0.74 ± 0.038
53 | FVLGGLHAGYVL | 0.7146 ± 0.0038
54 | AISPHPPPALTP | 0.6872 ± 0.0027
55 | GWWGGCRSGVPE | 0.672 ± 0.069
56 | CPRLDVSSGFSW | 0.694 ± 0.025
57 | AVGRGGVGAEGA | 0.65 ± 0.011
58 | WDQLPVNMVYQC | 0.571
59 | RRGRGGGRRVDA | 0.731 ± 0.021
60 | PPDPPPHASPAP | 0.72 ± 0.03
61 | LWQGGRAFWQPV | 0.679 ± 0.046
62 | FCGACFRGDVLV | 0.67 ± 0.017
63 | PSLLPLLPLPPP | 0.685 ± 0.038
64 | RLGLRWSPHSSP | 0.707 ± 0.01
65 | PVFPPTPLSPRP | 0.571 ± 0.077
66 | FVISRPRLHSFC | 0.5663 ± 0.0032
67 | SVRLVGHGARDR | 0.699 ± 0.18
68 | FPRFACVLPAFH | 0.671 ± 0.081
69 | QKKIKKPKSKKH | 0.736 ± 0.031
70 | SCEIDKMYLPLR | 0.701 ± 0.031
71 | LIGRPLPRTFMH | 0.766 ± 0.074
72 | SPRQARSFLTSS | 0.756 ± 0.026

Row | Sequence | protein stability index
73 | EITKVKDNEKIN | 0.686 ± 0.12
74 | TYKKAKIRKKYI | 0.6237 ± 0.0045
75 | PSRRPLPHPPPP | 0.654 ± 0.045
76 | YSVPDFIVVSHL | 0.797 ± 0.12
77 | RSPNSSPPPSIS | 0.648 ± 0.014
78 | PTLSSPHPPNNY | 0.689 ± 0.021
79 | AEERTSETRYKN | 0.656 ± 0.0079
80 | FRPCPLNSLSRY | 0.724 ± 0.021
81 | NQHKKGQKKKGI | 0.684 ± 0.042
82 | GVCTGSFVFYLT | 0.686 ± 0.016
83 | QDSANLSPSFPF | 0.724 ± 0.048
84 | GFTLCPVSLGYF | 0.688 ± 0.017
85 | ILDNWQFSYIKD | 0.713 ± 0.051
86 | PIPPRLPPPPPP | 0.589 ± 0.057
87 | RFSTRAVRLGPC | 0.705 ± 0.19
88 | VSRVWAHFGFCG | 0.707 ± 0.02
89 | YPPLTNNQINES | 0.69 ± 0.015
90 | LWCWVGGALCGG | 0.742 ± 0.17
91 | CGQEQGCEGAVD | 0.658 ± 0.12
92 | GGGGGGGCGGDR | 0.654 ± 0.08
93 | LPPPLPPPPPPV | 0.651 ± 0.017
94 | TPPLHSPFLFPP | 0.671 ± 0.049
95 | GESRVGMRRGGR | 0.667 ± 0.029
96 | SLRPSELFRPLN | 0.724 ± 0.014

Row | Sequence | protein stability index
97 | QIYKISKKKKQK | 0.676 ± 0.055
98 | KKKKKKKKKKKN | 0.595 ± 0.034
99 | PQPPTPLTPTPP | 0.697 ± 0.089
100 | MAEAVVLDPDMV | 0.6831 ± 0.0055
101 | KTQNVNDQGEET | 0.644 ± 0.062
102 | DGLQNACVFMSG | 0.6906 ± 0.0025
103 | MVRWGLGRVYGC | 0.786 ± 0.1
104 | RYSLMRAVRDRL | 0.775 ± 0.17
105 | SLRSPPPPPGIL | 0.756 ± 0.046
106 | LPTPRRHFRPPP | 0.657 ± 0.028
107 | IRVLDVWRSGHL | 0.737 ± 0.0079
108 | MIASGGGGEAAY | 0.742 ± 0.081
109 | NGGGMPDRVVSI | 0.722 ± 0.024
110 | FTCRRYVGFMGG | 0.798 ± 0.025
111 | PHYCSAYTAGHG | 0.72 ± 0.036
112 | ITLQGDWCRLVD | 0.715 ± 0.092
113 | VGDRCDECGFWA | 0.699 ± 0.0043
114 | PPHPQRANAPGH | 0.6615 ± 0.0057
115 | SQKNTQLEADGK | 0.661 ± 0.0093
116 | ALPTLALPPCRS | 0.73 ± 0.1
117 | PPCPVTSFRPSI | 0.755 ± 0.05
118 | GGGGGGGGGGGV | 0.709 ± 0.053
119 | SPLPPSPSPPTP | 0.725 ± 0.22
120 | RYNPPRGIHNDL | 0.651 ± 0.043

Row | Sequence | protein stability index
121 | QKNKKKKQKKEK | 0.717 ± 0.05
122 | APAPPPVSSASL | 0.665 ± 0.013
123 | KKTERRNKKKIR | 0.695 ± 0.031
124 | GRGVGACLVVVV | 0.523 ± 0.022
125 | PSPFPLPLSFAR | 0.538 ± 0.047
126 | AHDRLPSTRLVC | 0.581 ± 0.086
127 | SRFIDLLFPSSP | 0.705 ± 0.0074
128 | KKKKKKTTPKTN | 0.745 ± 0.038
129 | YSLTFSIHSSCP | 0.697 ± 0.033
130 | RLRSSTAAAAIV | 0.713 ± 0.082
131 | SPPPALLPPLFP | 0.73 ± 0.064
132 | GMDGWGWGGSVV | 0.706 ± 0.026
133 | PPLSPSLPPSPS | 0.681 ± 0.0089
134 | PPPPPAPPPLCY | 0.663 ± 0.045
135 | ILSSPGLLLFRL | 0.5449 ± 0.005
136 | QFSPPLSLAPLP | 0.783 ± 0.05
137 | VGGGGLGVEAWG | 0.613 ± 0.059
138 | PVSSPLVFLLSI | 0.625 ± 0.045
139 | EGGTGCLAMSVG | 0.7 ± 0.012
140 | FRPNPCLSPCSA | 0.643 ± 0.1
141 | LYPRPSRFPPLL | 0.732 ± 0.087
142 | CVCLGCGGAFAG | 0.696 ± 0.019
143 | CQPNRKRETRGN | 0.732 ± 0.064
144 | KKRKKKKIIQTK | 0.65 ± 0.11

Row | Sequence | protein stability index
145 | SVPLTPKTPPPP | 0.701 ± 0.049
146 | PGLPGHLPPLPL | 0.62033 ± 0.00011
147 | FAGAEFCGPVGV | 0.629 ± 0.0024
148 | RRTTGLGWSGRP | 0.644 ± 0.025
149 | ANYGSCSLGYVL | 0.74 ± 0.062
150 | WGGSGRVWVKLG | 0.696 ± 0.055
151 | AISPAPRVSPTP | 0.786 ± 0.052
152 | PPRSFPGTPLIA | 0.67 ± 0.069
153 | LSSSLLSLLYNF | 0.534 ± 0.039
154 | VFLNRGSHQQET | 0.691 ± 0.056
155 | LRFLPHIPSGLS | 0.716 ± 0.019
156 | PPSRDSHPPPPP | 0.627 ± 0.02
157 | SLVSGPRPPSAF | 0.737 ± 0.089
158 | VGVVGGRWCGRG | 0.648 ± 0.0099
159 | STPPAPPPLLPP | 0.736 ± 0.031
160 | GHSNRDCFGIKC | 0.621 ± 0.024
161 | APRFDLVLPHVF | 0.721 ± 0.07
162 | LSPRPPSPPPPP | 0.688 ± 0.011
163 | GREREKGGKRIE | 0.629 ± 0.047
164 | HNGYLKRIKISR | 0.707 ± 0.085
165 | CSNGRKFKKDDA | 0.682 ± 0.059
166 | GCVGCNRWWPGW | 0.721 ± 0.042
167 | LVRCGLGASVVV | 0.651 ± 0.041
168 | CVWSGHIWDLLF | 0.764 ± 0.016

Row | Sequence | protein stability index
169 | LPPHRPPAPDLS | 0.674 ± 0.049
170 | LTSLIPPLPFLF | 0.669 ± 0.032
171 | AAGRSNTEPGDH | 0.69 ± 0.057
172 | PLSPSAVGCPGF | 0.645 ± 0.16
173 | SWGHTGTLRNDI | 0.747 ± 0.035
174 | NSFTYWYGGCIL | 0.802 ± 0.28
175 | LPTVVTAVHQGL | 0.671 ± 0.014
176 | PPPDHSPPPCPP | 0.6857 ± 0.0037
177 | RWGVGGSVSFWW | 0.7 ± 0.047
178 | LSPIPLPPPLTS | 0.699 ± 0.044
179 | GWGPWGRVGRGG | 0.688 ± 0.032
180 | GIEAKPLEGKTQ | 0.7026 ± 0.0018
181 | LLPLLPAPRPPF | 0.691 ± 0.0063
182 | CHPFGLPFMLEF | 0.721 ± 0.026
183 | PLPLSPLLLPPR | 0.6836 ± 0.0045
184 | IVTGMGVVHIWR | 0.698 ± 0.04
185 | PCGTPHVRPLAT | 0.719 ± 0.025
186 | EGSVGRRGHCVR | 0.6959 ± 0.0055
187 | PPPPPPLPAPPH | 0.693 ± 0.029
188 | FELVEAAYISEE | 0.626 ± 0.058
189 | RDSERTSGAMLS | 0.689 ± 0.031
190 | FTTAGSGWESVW | 0.636 ± 0.041
191 | LPLDSPSRPLPP | 0.722 ± 0.011
192 | ELLSCGCCMVQS | 0.5622 ± 0.0025

— the supplement of paper PMC10724198
